For this experiment, the target named is T1, hCSF1R-ECD.506 (human, UniProt P07333 20-506).
T1 construct: also called hCSF1R.506; human CSF1R.506
The experiment is described as follows: SPR, Biacore. Here is the method: The CSF1 and IL34 ligand binding affinity and kinetics of the hCSF1R.506-GS-Fc and hCSF1R.512-GS-Fc fusion proteins were determined using Biacore® X surface plasmon resonance (SPR) technology (Uppsala, Sweden). CSF1 and IL34 are the only two ligands known to interact with the CSF1R ECD. The CSF1 and IL34 binding experiments were carried out using methodology similar to that described in Lin et al., Science 320:807-811, (2008).
In order to compare the relative ligand binding affinity of hCSF1R.506 (SEQ ID NO:2) and hCSF1R.506-Fc (SEQ ID NO:6) proteins expressed in CHO cells to CSF1, a Biacore® assay was used.

T1 sequence (P07333 20-506 limits assumed): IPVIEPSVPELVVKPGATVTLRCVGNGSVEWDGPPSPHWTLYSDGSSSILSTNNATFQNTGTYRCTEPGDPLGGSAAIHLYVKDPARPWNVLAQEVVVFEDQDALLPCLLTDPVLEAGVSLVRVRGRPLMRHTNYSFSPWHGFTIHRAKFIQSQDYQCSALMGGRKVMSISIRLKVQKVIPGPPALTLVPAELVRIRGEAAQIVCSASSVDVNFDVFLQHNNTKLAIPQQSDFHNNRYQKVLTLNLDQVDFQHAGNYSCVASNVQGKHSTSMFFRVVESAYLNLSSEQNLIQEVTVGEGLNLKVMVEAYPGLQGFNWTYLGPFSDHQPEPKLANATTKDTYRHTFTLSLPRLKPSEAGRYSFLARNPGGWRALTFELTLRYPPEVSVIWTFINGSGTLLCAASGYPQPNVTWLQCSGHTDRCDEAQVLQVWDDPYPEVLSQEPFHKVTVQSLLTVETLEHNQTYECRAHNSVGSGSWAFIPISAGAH

B1: colony stimulating factor 1 ligand (CSF1) (ligand, UniProt P09603 33-190, looked up)
chain: EEVSEYCSHMIGSGHLQSLQRLIDSQMETSCQITFEFVDQEQLKDPVCYLKKAFLLVQDIMEDTMRFRDNTPNAIAIVQLQELSLRLKSCFTKDYEEHDKACVRTFYETPLQLLEKVKNVFNETKNLLDKDWNIFSKNCNNSFAECSSQDVVTKPDCN
notes: also called MCSF; MGC31930
B1 yielded a Kd of 28.9 nM, a koff of 0.000809 s⁻¹ and a kon of 28000 M⁻¹ s⁻¹.

Values taken from patent US20100136007A1 (Five Prime, published 2010).
